Here are results for 5 molecules from patent publication US20030235860A1, “Interactions between AR, ER, TR2, and TR4” (priority 1999, published 2003).

In assay [1] the target is T1, interaction between AR and TR4 (Homo sapiens, UniProt P10275, DEL79-80/DUP473-473).
T1 construct: A full-length AR(pSG5AR) was co-transfected with GAL4-TR4E; expressed in transfected cells; host or cells: H1299
The assay is described as follows: Modified mammalian one-hybrid system pSG5AR / GAL4-TR4E. The class given is cell-based. The note with it: 1 μM of anti androgen. On the procedure: A full-length AR(pSG5AR) was co-transfected with GAL4-TR4E and PG5-Luc reporter in H1299 cells (pSG5AR, pSG5GR, pSG5PR, disclosed in Yeh et al., Proc Natl. Acad. Sci., 93:5517-5521 (1996), which is herein incorporated by reference at least for material related to plasmids and assays, including sequence).
Transfection was performed by a modified calcium phosphate precipitation method. The pRL-TK plasmid was co-transfected for normalization of transfection efficiency.

The target of assay [2] is T2, TR4 (Homo sapiens, UniProt P49116).
T2 construct: full-length AR and TR4 in eukaryotic expression vectors (pSG5AR and pCMXTR4) were co-transfected; expressed in transfected cells; host or cells: H1299, HepG2
T2 sequence (P49116 1-615 isoform P49116-2 N175S/W419R/A428G/K503N/L504W/A613V): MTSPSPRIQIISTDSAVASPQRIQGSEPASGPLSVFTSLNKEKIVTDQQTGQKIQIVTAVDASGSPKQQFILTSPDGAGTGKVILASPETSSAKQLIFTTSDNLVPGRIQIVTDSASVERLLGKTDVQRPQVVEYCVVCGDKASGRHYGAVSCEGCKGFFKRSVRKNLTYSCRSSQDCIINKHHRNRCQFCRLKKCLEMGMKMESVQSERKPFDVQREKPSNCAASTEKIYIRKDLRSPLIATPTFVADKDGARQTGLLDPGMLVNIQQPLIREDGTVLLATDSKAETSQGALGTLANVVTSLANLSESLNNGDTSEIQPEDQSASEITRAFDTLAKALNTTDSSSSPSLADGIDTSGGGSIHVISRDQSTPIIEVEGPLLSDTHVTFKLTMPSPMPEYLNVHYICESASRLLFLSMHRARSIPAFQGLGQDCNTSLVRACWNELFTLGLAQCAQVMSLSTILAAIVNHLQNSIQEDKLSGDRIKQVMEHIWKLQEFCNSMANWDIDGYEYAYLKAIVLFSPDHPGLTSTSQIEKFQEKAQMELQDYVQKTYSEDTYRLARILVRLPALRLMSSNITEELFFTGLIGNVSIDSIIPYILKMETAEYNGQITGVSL
In words: TR4-mediated transactivation reporter assay. The class given is cell-based. The note with it: H1299 cells; absence or presence of DHT. The protocol:
Cells were routinely maintained in DMEM with 10% heat-inactivated fetal bovine serum. The cells were transfected using a modified calcium phosphate precipitation method, Mizokami, & Chang, J: Biol. Chem. 269,25655-25659 (1994), or SuperFect (Qiagen). To normalize the transfection efficiency, the (3-galactosidase expression ver and pRL-TK were co-transfected in CAT assay and in Dual-luciferase reporter assay system (Promega), respectively.
More specifically, 500 ng of reporter plasmids were co-transfected(DR4-CAT and CNTFR-15-LUC) with 200 ng of pCMX-TR4 and increasing amounts of pCMV-AR (200, 600, and 1,200 ng), pSG5GR (1,200 ng), or pSG5 PR (1,200 ng) using the SuperFect transfection kit (Qiagen) (PCMV AR Mowszowicz et al., (1993) Molecular Endocrinology 7:861:869). […] Similar results were obtained when the DR4-TK-CAT reporter was replaced with DR1-CNTFR-15-LUC, another TR4 response element (FIG. 3A). Young, et al., J: Biol. Chem. 272,3109-3116 (1997).
Another TR4 potential target gene, which is located in the hepatitis B virus (HBV) enhancer II region (−34 to −7) containing a classic DR1 motif. Breidbart, et al., Pediatric Res. 34,300-302 (1993), was investigated. The reporter plasmid CpFL(4)-LUC, which contains the HBV core promoter (Cp) sequence located between −34 and −7 (nucleotide coordinates 1751 and 1778 derived from the Genbank database) was shown above in FIG. 3B. The arrows indicate the DRI motif in HBV core promoter. HepG2 cells were co-transfected with 1.5 μg CpFL(4)-LUC reporter and 0.5 μg pCMX-TR4, with increasing amounts of pCMV-AR (0.5, 2.5, and 5 μg) by modified calcium phosphate precipitation method. The relative reporter gene activities were compared to the CAT activities (or luciferase activities) with vector alone. To normalize the transfection efficiency, the β-galactosidase expression vector and pRL-TK were co-transfected in the CAT assay and in the Dual-luciferase reporter assay system (Promega), respectively.
(In general: Reporter assays use an easily measured gene product as a stand-in for the process of interest.)

The target of assay [3] is T3, TR2 (Homo sapiens, UniProt P13056).
T3 sequence (P13056 1-603): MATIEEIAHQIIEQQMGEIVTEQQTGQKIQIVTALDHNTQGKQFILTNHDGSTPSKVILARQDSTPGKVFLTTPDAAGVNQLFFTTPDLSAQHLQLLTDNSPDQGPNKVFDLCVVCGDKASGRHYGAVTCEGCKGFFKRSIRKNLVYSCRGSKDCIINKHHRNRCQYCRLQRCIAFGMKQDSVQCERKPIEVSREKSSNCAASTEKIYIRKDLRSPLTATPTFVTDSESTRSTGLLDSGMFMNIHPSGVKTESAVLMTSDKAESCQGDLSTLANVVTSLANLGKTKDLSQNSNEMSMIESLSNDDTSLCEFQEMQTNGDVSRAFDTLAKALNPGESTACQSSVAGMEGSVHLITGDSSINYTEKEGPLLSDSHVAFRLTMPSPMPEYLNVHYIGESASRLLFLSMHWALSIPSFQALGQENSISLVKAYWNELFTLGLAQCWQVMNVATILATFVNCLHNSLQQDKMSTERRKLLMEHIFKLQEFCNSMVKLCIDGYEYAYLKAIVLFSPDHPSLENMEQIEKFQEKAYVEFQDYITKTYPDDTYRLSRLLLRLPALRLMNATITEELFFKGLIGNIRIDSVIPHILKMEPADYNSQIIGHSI
In words: TR2-mediated transactivation reporter assay. Format: cell-based. The note with it: H1299 cells; absence or presence of E2. The protocol:
Transfections and chloramphenicol acetyltransferase (CAT) assays were performed as described previously. Yeh, & Chang, Proc. Natl. Acad. Sci. 93, 5517-5521 (1996). Briefly, 4×10^5 cells were plated in 60-mm dishes and cultured for 24 h, and then the medium was changed to phenol red free DMEM with 5% charcoal-stripped FCS 2 h before transfection. The cells were co-transfected with TR2 and/or ER expression plasmids with 2 μg of TR2-TK-CAT reporter or 1 μg of ERE-CAT reporter gene plasmid, as indicated in the Figures, by using the calcium phosphate precipitation method. A β-gal actosidase expression plasmid, pCMV-β-gal, was transfected in all transfections as an internal control for normalizing transfection efficiency. The total amount of DNA was adjusted up to 10.5 μg with parent vectors, pSG5 or pCMV in each transcriptional activity assay. […] The cells were then harvested and whole cell extracts were used for CAT assay. The CAT activity was quantitated by Phosphorlmager (Molecular Dynamics). Data are presented as means±S.D. of at least three independent experiments.
The CAT reporter assay was used to study the potential consequence of the formation of heterodimers between the TR2 and ER. […] More specifically, H1299 cells were transiently cotransfected with 2 μg of DR4-TK-CAT reporter plasmid and 3 μg of TR2 expression plasmid together with increasing amounts of the ER expression vector. […] Cells were also transfected with internal control reporter plasmid, pCMV-β-gal, as an internal control for transfection efficiency. Luciferase activity was then analyzed following manufacturer's instructions (Promega). […] Similar results were obtained when the DR4-TK-CAT reporter with DR1-HBV-LUC were replaced, another TR2 response element (FIG. 7C).
This conclusion was further confirmed by using the chimera receptor, TR2-androgen receptor (AR) ARp-TR2, which was generated by swapping TR2 proximal box (P-box) with that found in the AR. […] Luciferase activity was then analyzed following manufacturer's instructions (Promega). […]

Assay [4] concerns the target T4, TR4 orphan receptor (TR4), full-length (human, UniProt P49116 1-596).
T4 construct: Full-length TR4; 35S-labeled when in vitro translated, expressed from plasmids in the cell assays; also called pCMX-TR4; pCMV-TR4
T4 sequence: T2 sequence (P49116 1-615 isoform P49116-2 N175S/W419R/A428G/K503N/L504W/A613V)
In words: Table 4, summary of interactions tested; assay not given.

T1 sequence (P10275 with tags, fused parts or gaps DEL79-80/DUP473-473): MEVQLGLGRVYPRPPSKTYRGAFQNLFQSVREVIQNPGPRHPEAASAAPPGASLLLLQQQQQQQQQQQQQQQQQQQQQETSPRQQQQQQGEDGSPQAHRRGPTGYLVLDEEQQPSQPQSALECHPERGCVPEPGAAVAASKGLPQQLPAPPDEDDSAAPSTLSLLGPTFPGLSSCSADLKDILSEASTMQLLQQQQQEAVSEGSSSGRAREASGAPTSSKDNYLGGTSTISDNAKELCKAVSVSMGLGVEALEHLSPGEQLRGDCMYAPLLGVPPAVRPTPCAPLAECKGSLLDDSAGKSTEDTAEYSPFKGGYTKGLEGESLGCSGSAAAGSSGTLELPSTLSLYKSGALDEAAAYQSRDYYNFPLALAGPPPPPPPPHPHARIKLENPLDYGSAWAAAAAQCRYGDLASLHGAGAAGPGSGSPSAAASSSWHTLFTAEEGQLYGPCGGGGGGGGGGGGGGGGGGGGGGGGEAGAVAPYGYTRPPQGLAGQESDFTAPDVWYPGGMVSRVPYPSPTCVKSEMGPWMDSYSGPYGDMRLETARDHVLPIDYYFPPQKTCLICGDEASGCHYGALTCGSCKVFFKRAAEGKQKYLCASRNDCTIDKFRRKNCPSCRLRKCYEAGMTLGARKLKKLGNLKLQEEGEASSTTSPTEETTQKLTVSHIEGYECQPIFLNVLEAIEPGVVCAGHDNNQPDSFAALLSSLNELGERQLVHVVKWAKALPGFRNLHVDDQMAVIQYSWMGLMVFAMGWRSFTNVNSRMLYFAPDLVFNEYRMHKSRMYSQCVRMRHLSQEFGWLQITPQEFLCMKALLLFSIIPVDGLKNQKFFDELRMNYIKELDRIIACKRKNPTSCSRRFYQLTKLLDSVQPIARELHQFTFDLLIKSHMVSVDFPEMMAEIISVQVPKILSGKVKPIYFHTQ

On to `CC1(C)C(=O)N(c2ccc(C#N)c(C(F)(F)F)c2)C(=O)N1CCCCO` [RU58841], for which the “Effect on DHT-enhanced interaction between AR and TR4” value in assay [1] is listed as “abolish”. Consider `CC(C)(O)C(=O)Nc1ccc([N+](=O)[O-])c(C(F)(F)F)c1` [hydroxyflutamide], for which the “Effect on DHT-enhanced interaction between AR and TR4” value in assay [1] is given as “abolish”. For the molecule GR: glucocorticoid receptor, the “CAT activity induced by pCMXTR4 (DR4-TK-CAT; similar with DR1-CNTFR-I5-LUC)” value in assay [2] is on record as “no suppressive effects”. Besides, the “CAT activity induced by pCMV-TR2 (DR4-TK-CAT; similar with DR1-HBV-LUC)” value in assay [3] is recorded as “no suppressive effect”.

B1: PR: progesterone receptor (protein)
chain: MTELKAKGPRAPHVAGGPPSPEVGSPLLCRPAAGPFPGSQTSDTLPEVSAIPISLDGLLFPRPCQGQDPSDEKTQDQQSLSDVEGAYSRAEATRGAGGSSSSPPEKDSGLLDSVLDTLLAPSGPGQSQPSPPACEVTSSWCLFGPELPEDPPAAPATQRVLSPLMSRSGCKVGDSSGTAAAHKVLPRGLSPARQLLLPASESPHWSGAPVKPSPQAAAVEVEEEDGSESEESAGPLLKGKPRALGGAAAGGGAAAVPPGAAAGGVALVPKEDSRFSAPRVALVEQDAPMAPGRSPLATTVMDFIHVPILPLNHALLAARTRQLLEDESYDGGAGAASAFAPPRSSPCASSTPVAVGDFPDCAYPPDAEPKDDAYPLYSDFQPPALKIKEEEEGAEASARSPRSYLVAGANPAAFPDFPLGPPPPLPPRATPSRPGEAAVTAAPASASVSSASSSGSTLECILYKAEGAPPQQGPFAPPPCKAPGASGCLLPRDGLPSTSASAAAAGAAPALYPALGLNGLPQLGYQAAVLKEGLPQVYPPYLNYLRPDSEASQSPQYSFESLPQKICLICGDEASGCHYGVLTCGSCKVFFKRAMEGQHNYLCAGRNDCIVDKIRRKNCPACRLRKCCQAGMVLGGRKFKKFNKVRVVRALDAVALPQPVGVPNESQALSQRFTFSPGQDIQLIPPLINLLMSIEPDVIYAGHDNTKPDTSSSLLTSLNQLGERQLLSVVKWSKSLPGFRNLHIDDQITLIQYSWMSLMVFGLGWRSYKHVSGQMLYFAPDLILNEQRMKESSFYSLCLTMWQIPQEFVKLQVSQEEFLCMKVLLLLNTIPLEGLRSQTQFEEMRSSYIRELIKAIGLRQKGVVSSSQRFYQLTKLLDNLHDLVKQLHLYCLNTFIQSRALSVEFPEMMSEVIAAQLPKILAGMVKPLLFHKK
As for B1, the “CAT activity induced by pCMXTR4 (DR4-TK-CAT; similar with DR1-CNTFR-I5-LUC)” value in assay [2] is on record as “no suppressive effects”. In assay [3], the “CAT activity induced by pCMV-TR2 (DR4-TK-CAT; similar with DR1-HBV-LUC)” value is listed as “no suppressive effect”.

B2: estrogen receptor (ER), full-length (receptor)
chain: MTMTLHTKASGMALLHQIQGNELEPLNRPQLKIPLERPLGEVYLDSSKPAVYNYPEGAAYEFNAAAAANAQVYGQTGLPYGPGSEAAAFGSNGLGGFPPLNSVSPSPLMLLHPPPQLSPFLQPHGQQVPYYLENEPSGYTVREAGPPAFYRPNSDNRRQGGRERLASTNDKGSMAMESAKETRYCAVCNDYASGYHYGVWSCEGCKAFFKRSIQGHNDYMCPATNQCTIDKNRRKSCQACRLRKCYEVGMMKGGIRKDRRGGRMLKHKRQRDDGEGRGEVGSAGDMRAANLWPSPLMIKRSKKNSLALSLTADQMVSALLDAEPPILYSEYDPTRPFSEASMMGLLTNLADRELVHMINWAKRVPGFVDLTLHDQVHLLECAWLEILMIGLVWRSMEHPVKLLFAPNLLLDRNQGKCVEGMVEIFDMLLATSSRFRMMNLQGEEFVCLKSIILLNSGVYTFLSSTLKSLEEKDHIHRVLDKITDTLIHLMAKAGLTLQQQHQRLAQLLLILSHIRHMSNKGMEHLYSMKCKNVVPLYDLLLEMLDAHRLHAPTSRGGASVEETDQSHLATAGSTSSHSLQKYYITGEAEGFPATV
notes: 35S-labeled when in vitro translated for the pull-downs; endogenous in MCF7 cells for the co-immunoprecipitation; also called ERα; pSG5-ER
With B2, the binding result in assay [4] is recorded as “binds”.
